Substrate in data set [1]: Nc1ncnc2c1ncn2[C@@H]1O[C@H](COP(=O)(O)OP(=O)(O)OP(=O)(O)O)[C@@H](O)[C@H]1O
Kind of data set: purified protein. The format is biochemical, Mus musculus. The conditions noted are these: 1 mM NMN, 20 mM MgCl2, 20 mM HEPES-KOH pH 7.4, 37°C.

Substrate in data set [2]: NC(=O)c1ccc[n+]([C@@H]2O[C@H](COP(=O)(O)O)[C@@H](O)[C@H]2O)c1
Kind of data set: purified protein. The data set is classed as biochemical, Mus musculus. The conditions noted are these: 1 mM ATP, 20 mM MgCl2, 20 mM HEPES-KOH pH 7.4, 37°C.

Positions count from the first letter of the chain named. Names may count otherwise.

This passage reports Km results from paper PMC3162248.

B1: Nmnat1 (mouse Nmnat1) (Mus musculus) (protein)
chain: MDSSKKTEVVLLACGSFNPITNMHLRLFELAKDYMHATGKYSVIKGIISPVGDAYKKKGLIPAHHRIIMAELATKNSHWVEVDTWESLQKEWVETVKVLRYHQEKLATGSCSYPQSSPALEKPGRKRKWADQKQDSSPQKPQEPKPTGVPKVKLLCGADLLESFSVPNLWKMEDITQIVANFGLICITRAGSDAQKFIYESDVLWRHQSNIHLVNEWITNDISSTKIRRALRRGQSIRYLVPDLVQEYIEKHELYNTESEGRNAGVTLAPLQRNAAEAKHNHSTL
On to B1, for which the Km came out at 50.4 µM in the data set “purified protein [1]” and 27.6 µM in the data set “purified protein [2]”.

B2: Nmnat1 (mouse Nmnat1) (Mus musculus; H24A) (protein)
chain: B1 chain with H24A
With B2, the Km in the data set “purified protein [1]” came out at 47.3 µM.

B3: Nmnat1 (mouse Nmnat1) (Mus musculus; W170A) (protein)
chain: B1 chain with W170A
Consider B3, for which, in “purified protein [2]”, the Michaelis constant (Km) was determined as 1400 µM.

What is called Km is the substrate concentration at which the rate is half of its maximum.
